# Measured values reported in publication PMC10397247.
# T1: 4H1310-AA
# T1 chain: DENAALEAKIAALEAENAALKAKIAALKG
# T2: 4H1385-AA
# T2 chain: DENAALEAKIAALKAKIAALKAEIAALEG
# T3: 4H1579-AA
# T3 chain: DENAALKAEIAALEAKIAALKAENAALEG
# T4: 4H171-AA
# T4 chain: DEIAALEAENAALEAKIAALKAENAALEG
# T5: 4H1842-AA
# T5 chain: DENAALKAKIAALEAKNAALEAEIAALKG
# T6: 4H1845-AA
# T6 chain: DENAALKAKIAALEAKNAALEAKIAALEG
# T7: 4H2109-AA
# T7 chain: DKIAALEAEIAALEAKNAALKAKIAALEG
# T8: 4H2190-AA
# T8 chain: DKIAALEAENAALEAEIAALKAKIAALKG
# T9: 4H2198-AA
# T9 chain: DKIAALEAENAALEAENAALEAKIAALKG
# T10: 4H2277-AA
# T10 chain: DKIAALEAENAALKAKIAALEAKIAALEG
# T11: 4H2354-AA
# T11 chain: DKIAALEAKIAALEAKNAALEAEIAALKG
# T12: 4H2466-AA
# T12 chain: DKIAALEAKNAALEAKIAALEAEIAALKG
# T13: 4H2505-AA
# T13 chain: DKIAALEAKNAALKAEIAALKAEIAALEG
# T14: 4H2592-AA
# T14 chain: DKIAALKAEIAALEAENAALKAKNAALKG
# T15: 4H2620-AA
# T15 chain: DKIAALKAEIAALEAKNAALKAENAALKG
# T16: 4H2754-AA
# T16 chain: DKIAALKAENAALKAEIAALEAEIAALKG
# T17: 4H2837-AA
# T17 chain: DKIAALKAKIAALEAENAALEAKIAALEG
# T18: 4H2944-AA
# T18 chain: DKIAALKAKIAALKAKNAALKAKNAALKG
# T19: 4H2949-AA
# T19 chain: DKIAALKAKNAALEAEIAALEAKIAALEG
# T20: 4H3001-AA
# T20 chain: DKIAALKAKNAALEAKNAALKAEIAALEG
# T21: 4H3049-AA
# T21 chain: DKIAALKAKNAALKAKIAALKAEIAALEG
# T22: 4H3112-AA
# T22 chain: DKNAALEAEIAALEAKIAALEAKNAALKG
# T23: 4H3133-AA
# T23 chain: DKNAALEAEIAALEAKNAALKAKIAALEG
# T24: 4H3162-AA
# T24 chain: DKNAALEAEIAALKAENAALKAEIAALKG
# T25: 4H3413-AA
# T25 chain: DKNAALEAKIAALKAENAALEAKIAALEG
# T26: 4H347-AA
# T26 chain: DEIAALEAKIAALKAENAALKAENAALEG
# T27: 4H3655-AA
# T27 chain: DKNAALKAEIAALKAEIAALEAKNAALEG
# T28: 4H3844-AA
# T28 chain: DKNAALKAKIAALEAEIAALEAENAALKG
# T29: 4H48-AA
# T29 chain: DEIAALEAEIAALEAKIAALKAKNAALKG
# T30: 4H605-AA
# T30 chain: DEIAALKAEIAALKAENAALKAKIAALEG
# T31: 4H794-AA
# T31 chain: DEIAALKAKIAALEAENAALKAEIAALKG
# T32: P10-AA
# T32 chain: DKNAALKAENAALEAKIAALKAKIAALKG
# T33: P9-AA
# T33 chain: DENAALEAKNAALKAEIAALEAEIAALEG
# B1: 4H1153-AA (peptide)
# chain: DENAALEAENAALEAEIAALEAEIAALEG
# B2: 4H1142-AA (peptide)
# chain: DENAALEAEIAALKAKNAALEAKIAALKG
# B3: 4H1385-AA (peptide)
# chain: DENAALEAKIAALKAKIAALKAEIAALEG
# B4: 4H1350-AA (peptide)
# chain: DENAALEAKIAALKAEIAALEAKIAALKG
# B5: 4H171-AA (peptide)
# chain: DEIAALEAENAALEAKIAALKAENAALEG
# B6: 4H1626-AA (peptide)
# chain: DENAALKAEIAALKAENAALKAEIAALKG
# B7: 4H1401-AA (peptide)
# chain: DENAALEAKIAALKAKNAALKAEIAALEG
# Target: T1, 4H1310-AA
# Test: two-hybrid library CCmax;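 also: natural log of median RNA to DNA barcode read ratio; higher means stronger binding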
# Conditions: mean of both orientations
row,interaction score,Binder
1,-1.28,B1
2,-1.26,B2

# Target: T2, 4H1385-AA
# Test: two-hybrid library CCmax;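 also: natural log of median RNA to DNA barcode read ratio; higher means stronger binding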
# Conditions: not given
row,interaction score,Binder
1,-1.1,B2
2,2.06,B3

# Same assay, conditions: mean of both orientations
row,interaction score,Binder
1,2.18,B4

# Target: T3, 4H1579-AA
# Test: two-hybrid library CCmax;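 also: natural log of median RNA to DNA barcode read ratio; higher means stronger binding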
# Conditions: mean of both orientations
row,interaction score,Binder
1,-1.39,B2
2,-0.0818,B3

# Target: T4, 4H171-AA
# Test: two-hybrid library CCmax;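 also: natural log of median RNA to DNA barcode read ratio; higher means stronger binding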
# Conditions: not given
row,interaction score,Binder
1,-1.01,B5

# Same assay, conditions: mean of both orientations
row,interaction score,Binder
1,-1.36,B2
2,-0.131,B3
3,-1.66,B6

# Target: T5, 4H1842-AA
# Test: two-hybrid library CCmax;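 also: natural log of median RNA to DNA barcode read ratio; higher means stronger binding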
# Conditions: mean of both orientations
row,interaction score,Binder
1,-0.709,B2
2,-1.26,B5
3,-1.47,B3
4,-1.57,B6

# Target: T6, 4H1845-AA
# Test: two-hybrid library CCmax;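 also: natural log of median RNA to DNA barcode read ratio; higher means stronger binding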
# Conditions: mean of both orientations
row,interaction score,Binder
1,-1.27,B1
2,-0.689,B2
3,-1.13,B7

# Target: T7, 4H2109-AA
# Test: two-hybrid library CCmax
# Conditions: not given
row,interaction score,Binder
1,0.249,B2

# Same assay, conditions: mean of both orientations
row,interaction score,Binder
1,-0.826,B5
2,0.64,B3
3,-1.51,B6

# Target: T8, 4H2190-AA
# Test: two-hybrid library CCmax
# Conditions: mean of both orientations
row,interaction score,Binder
1,-0.187,B1
2,1.09,B7

# Target: T9, 4H2198-AA
# Test: two-hybrid library CCmax
# Conditions: mean of both orientations
row,interaction score,Binder
1,-1.56,B1
2,-1.52,B2
3,1.85,B7

# Target: T10, 4H2277-AA
# Test: two-hybrid library CCmax
# Conditions: mean of both orientations
row,interaction score,Binder
1,-1.07,B1
2,-1.59,B7

# Target: T11, 4H2354-AA
# Test: two-hybrid library CCmax
# Conditions: mean of both orientations
row,interaction score,Binder
1,-1.55,B1
2,-1.3,B7

# Target: T12, 4H2466-AA
# Test: two-hybrid library CCmax
# Conditions: mean of both orientations
row,interaction score,Binder
1,-1.53,B1
2,-1.54,B7

# Target: T13, 4H2505-AA
# Test: two-hybrid library CCmax
# Conditions: mean of both orientations
row,interaction score,Binder
1,0.301,B1
2,-1.67,B7

# Target: T14, 4H2592-AA
# Test: two-hybrid library CCmax
# Conditions: mean of both orientations
row,interaction score,Binder
1,-1.24,B6

# Target: T15, 4H2620-AA
# Test: two-hybrid library CCmax
# Conditions: mean of both orientations
row,interaction score,Binder
1,-1.41,B1
2,-1.34,B2
3,-1.63,B7

# Target: T16, 4H2754-AA
# Test: two-hybrid library CCmax
# Conditions: mean of both orientations
row,interaction score,Binder
1,-0.638,B1
2,-1.71,B7

# Target: T17, 4H2837-AA
# Test: two-hybrid library CCmax
# Conditions: mean of both orientations
row,interaction score,Binder
1,-1.49,B1
2,1.61,B7

# Target: T18, 4H2944-AA
# Test: two-hybrid library CCmax
# Conditions: mean of both orientations
row,interaction score,Binder
1,-0.0983,B1
2,-1.67,B7

# Target: T19, 4H2949-AA
# Test: two-hybrid library CCmax
# Conditions: mean of both orientations
row,interaction score,Binder
1,-0.947,B1
2,0.393,B7

# Target: T20, 4H3001-AA
# Test: two-hybrid library CCmax
# Conditions: mean of both orientations
row,interaction score,Binder
1,-2.01,B6

# Target: T21, 4H3049-AA
# Test: two-hybrid library CCmax
# Conditions: mean of both orientations
row,interaction score,Binder
1,-0.544,B3
2,0.379,B4

# Target: T22, 4H3112-AA
# Test: two-hybrid library CCmax
# Conditions: mean of both orientations
row,interaction score,Binder
1,-2.33,B1
2,-1.06,B7

# Target: T23, 4H3133-AA
# Test: two-hybrid library CCmax
# Conditions: mean of both orientations
row,interaction score,Binder
1,-2.15,B1
2,-0.11,B2
3,-0.677,B7

# Target: T24, 4H3162-AA
# Test: two-hybrid library CCmax
# Conditions: mean of both orientations
row,interaction score,Binder
1,-1.68,B1
2,-1.46,B2
3,-0.375,B7

# Target: T25, 4H3413-AA
# Test: two-hybrid library CCmax
# Conditions: mean of both orientations
row,interaction score,Binder
1,-1.92,B1
2,0.554,B2
3,0.857,B7

# Target: T26, 4H347-AA
# Test: two-hybrid library CCmax
# Conditions: mean of both orientations
row,interaction score,Binder
1,-1.66,B6

# Target: T27, 4H3655-AA
# Test: two-hybrid library CCmax
# Conditions: mean of both orientations
row,interaction score,Binder
1,-0.01,B1
2,-1.48,B7

# Target: T28, 4H3844-AA
# Test: two-hybrid library CCmax
# Conditions: mean of both orientations
row,interaction score,Binder
1,-0.484,B1
2,-0.79,B7

# Target: T29, 4H48-AA
# Test: two-hybrid library CCmax
# Conditions: mean of both orientations
row,interaction score,Binder
1,-1.38,B1
2,0.338,B7

# Target: T30, 4H605-AA
# Test: two-hybrid library CCmax
# Conditions: mean of both orientations
row,interaction score,Binder
1,-1.75,B1
2,-1.38,B7

# Target: T31, 4H794-AA
# Test: two-hybrid library CCmax
# Conditions: mean of both orientations
row,interaction score,Binder
1,-1.49,B1
2,-1.02,B7

# Target: T32, P10-AA
# Test: two-hybrid library CCmax
# Conditions: mean of both orientations
row,interaction score,Binder
1,-1.48,B5
2,-0.931,B7

# Target: T33, P9-AA
# Test: two-hybrid library CCmax
# Conditions: mean of both orientations
row,interaction score,Binder
1,-0.774,B5
2,-0.999,B7
